# Data published in patent US20140341916A1, “THERAPEUTIC COMBINATIONS AND METHODS OF TREATING MELANOMA” (Genentech, Inc., priority 2011, published 2014).
# T1: ETBR (Homo sapiens, UniProt P24530)
# T1 sequence (P24530 27-442): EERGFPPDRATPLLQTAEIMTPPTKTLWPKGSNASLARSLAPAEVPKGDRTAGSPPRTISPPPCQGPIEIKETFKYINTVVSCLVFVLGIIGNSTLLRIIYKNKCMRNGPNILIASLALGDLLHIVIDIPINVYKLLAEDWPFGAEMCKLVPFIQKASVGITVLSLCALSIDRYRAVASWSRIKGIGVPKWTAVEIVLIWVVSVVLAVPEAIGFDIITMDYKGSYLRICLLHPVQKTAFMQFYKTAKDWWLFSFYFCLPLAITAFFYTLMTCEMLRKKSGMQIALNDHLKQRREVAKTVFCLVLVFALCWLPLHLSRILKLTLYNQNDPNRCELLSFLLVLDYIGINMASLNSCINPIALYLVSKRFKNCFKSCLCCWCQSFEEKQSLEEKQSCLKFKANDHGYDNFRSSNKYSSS
# B1: Hu5E9v1-ADC: anti-ETBR antibody Hu5E9v1 conjugated to MMAE through a vc linker (antibody drug conjugate) (conjugate)
# VH: EVQLVESGGGLVQPGGSLRLSCAASGYTFTSYWMQWVRQAPGKGLEWIGTIYPGDGDTSYAQKFKGRATLSTDKSKNTAYLQMNSLRAEDTAVYYCARWGYAYDIDNWG
# VL: DIQMTQSPSSLSASVGDRVTITCKSSQSLLDSDGKTYLNWLQQKPGKAPKRLIYLVSKLDSGVPSRFSGSGSGTDFTLTISSLQPEDFATYYCWQGTHFPYTFGQGTKVEIK
# Assays:
# [1] = tested on: UACC-257X2.2 melanoma xenograft; experiment: In vivo efficacy, subcutaneous melanoma xenograft, tumor volume / % TGI; design: species or system mice; conditions: for % TGI Single Agent BRAFi vs. control / % TGI Single Agent Anti-ETBR ADC vs. control: UACC257-X2.2
# Description: (§1) Next, efficacy studies were performed using the melanoma cells lines in the xenografts mouse models described above. All studies were conducted in accordance with the Guide for the Care and Use of Laboratory Animals (Ref: Institute of Laboratory Animal Resources (NIH publication no. 85-23), Washington, D.C.: National Academies Press; 1996). 10- to 14-week-old female CRL Nu/Nu or NCr nude mice from Charles River Laboratories were inoculated subcutaneously in the dorsal right flank with either 5×10^6 UACC-257X2.2 cells in HBSS with Matrigel or 5×10^6 A2058 cells in HBSS with Matrigel. When tumor volumes reached approximately 200 mm^3 (day 0), animals were randomized into groups of 10 each.
# (§2) For single agent efficacy studies, the anti-ETBR ADC candidate Hu5E9v1-ADC was administered as a single intravenous (IV) injection on day 0 at 1 mpk, 3 mpk, or 6 mpk (mg/kg). A control ADC antibody and vehicle control were also administered. Average tumor volumes with standard deviations were determined from 10 animals per group. Tumor volumes were measured twice per week until study end.
# To do this, the in vivo efficacy for various combinations of Hu5E9v1-ADC and BRAFi-945 were evaluated against the UACC-257X2.2 melanoma model described above. Tumors were grown to an average size of approximately 200 mm^3, whereupon animals were randomized into groups of 10 each. An appropriate vehicle control (Klucel LF) or BRAFi-945 at doses of 1 mpk, 6 mpk or 20 mpk were administered orally once a day×21 days beginning on study Day 0. A single 1 mpk or 3 mpk dose of Hu5E9v1-ADC or control, a histidine buffer #8, was administered intraveneously (after two doses of 945) via tail vein at study Day 1.
# (§3) The average tumor volumes were determined from 10 animals per group. Tumor volumes were measured twice per week until study end. Tumor volumes were measured in two dimensions (length and width) using UltraCal IV calipers (Model 54 10 111, Fred V. Fowler Company; Newton, Mass.). The following formula was used with Excel, version 12.2.8 (Microsoft; Redmond, Wash.) to calculate tumor volume: Tumor Volume (mm3)=[…]
# (§4) To analyze the repeated measurement of tumor volumes from the same animals over time, a mixed-modeling Linear Mixed Effects (LME) approach was used (Pinheiro et al. 2009). This approach can address both repeated measurements and a modest drop-out rate due to non-treatment-related termination of animals prior to study end. Cubic regression splines were used to fit a non-linear profile to the time courses of log 2 tumor volume at each dose level. These non-linear profiles were then related to dose within the mixed model. Tumor growth inhibition (TGI) as a percentage of vehicle was calculated as percent area under the fitted curve (AUC) per day in relation to the vehicle, using the following formula:
# (§5) Using this formula, a TGI value of 100% indicates tumor stasis, of >1% but <100% indicates tumor growth delay, and of >100% indicates tumor regression. To get uncertainty intervals (UIs) for % TGI, the fitted curve and the fitted covariance matrix were used to generate a random sample as an approximation to the distribution of % TGI. The random sample is composed of 1000 simulated realizations of the fitted-mixed model, where the % TGI has been recalculated for each realization. Here, in the reported UI is the value for which 95% of the time, the recalculated values of % TGI will fall in this region given the fitted model. The 2.5 and 97.5 percentiles of the simulated distribution were used as the […] UIs.
# [2] = biological target: T1, ETBR; experiment: Scatchard analysis of antibody binding sites per cell with 125I-labeled Hu5E9v1-ADC; conditions: 4 h on ice, estimated
# Description: A determination of antibody binding sites per cell was performed (Scatchard analysis): The affinity constant and the number of cell surface binding sites for each antibody were estimated by incubating the melanoma cells for 4 h on ice with a fixed concentration of ^125I-labeled Hu5E9v1-ADC combined with increasing concentrations of unlabeled Hu5E9v1-ADC. The data were analyzed by nonlinear curve fitting using an analysis program method.
# [3] = tested on: A2058 melanoma cell line; experiment: In vitro cell killing, CellTiter-Glo cell viability; type: cell-based, human; conditions: A2058 (low ETBR copy number), 5 days
# Description: (§6) The melanoma cell lines A2058 and UACC-257X2.2 were grown in appropriate media at 37° C. and 5% CO2. To assess the effects of Hu5E9v1-ADC on cell viability, cells were plated at 1,500 per well in 50 μL, of normal growth medium in 96-well clear-bottom black plates. Twenty-four hours later, an additional 50 μL, of culture medium with serial dilutions of Hu5E9v1-ADC concentrations was added to triplicate wells. Five days later, cell survival was determined using CellTiter-Glo Luminescent Cell Viability Reagent (G7572; Promega Corporation) and with an EnVision 2101 Mutilabel Reader (Perkin-Elmer).
# [4] = tested on: UACC-257X2.2 melanoma cell line; experiment: as above; type: cell-based, human; conditions: UACC-257X2.2 (high ETBR copy number), 5 days
# Description: as §6
# [5] = tested on: A2058 melanoma xenograft; experiment: In vivo efficacy, subcutaneous melanoma xenograft, tumor volume / % TGI; design: species or system mice; conditions: for % TGI Single Agent Anti-ETBR ADC vs. control: A2058
# Description: as §1, §2, §3, §4, §5
# Tumors were grown to an average size of approximately 200 mm^3, whereupon animals were randomized into groups of 10 each. […] A single dose of Hu5E9v1-ADC at either 3 mpk or 6 mpk or control, a histidine buffer #8, was administered intraveneously into the tail vein on day 1 (after three doses of RG7204).
# To do this, the in vivo efficacy for various combinations of Hu5E9v1-ADC and MEKi-623 and/or MEKi-973 were evaluated against A2058 and SK-MEL-23 and IPC-298 melanoma in vivo models, performed as described above in Example 4. An appropriate methylcellulose tween vehicle control (0.5% methylcellulose, 0.2% Tween-80 (MCT) or MEK inhibitor at doses of 1 mpk, 3 mpk or 7.5 mpk were administered orally once a day×21 days beginning on study Day 0. A single 3 mpk or 6 mpk dose of Hu5E9v1-ADC or control, a histidine buffer #8, was administered intraveneously (after two doses of a MEK inhibitor) via tail vein at study Day 1.
# [6] = tested on: COLO 829 melanoma xenograft; experiment: as above; design: species or system mice
# Description: The average tumor volumes were determined from 10 animals per group. Tumor volumes were measured twice per week until study end. Tumor volumes were measured in two dimensions (length and width) using UltraCal IV calipers (Model 54 10 111, Fred V. Fowler Company; Newton, Mass.). The following formula was used with Excel, version 12.2.8 (Microsoft; Redmond, Wash.) to calculate tumor volume: Tumor Volume (mm3)=(length×width)×0.5
# To get uncertainty intervals (UIs) for % TGI, the fitted curve and the fitted covariance matrix were used to generate a random sample as an approximation to the distribution of % TGI. The random sample is composed of 1000 simulated realizations of the fitted-mixed model, where the % TGI has been recalculated for each realization. Here, in the reported UI is the value for which 95% of the time, the recalculated values of % TGI will fall in this region given the fitted model. The 2.5 and 97.5 percentiles of the simulated distribution were used as the upper and lower UIs.
# The COLO 829 xenograft model was chosen as representative of medium levels of ETBR expression, further increasing the stringency of the combination studies. Tumors were grown to an average size of approximately 200 mm^3, whereupon animals were randomized into groups of 9 each. An appropriate vehicle control (Klucel LF) or G00044364.1-12 (RG7204) at doses of 10 mpk or 30 mpk were administered orally twice a day for 21 days starting on day 0.
# [7] = Anti-ETBR ADC single dose 1 mg/kg
# [8] = Anti-ETBR ADC single dose 3 mg/kg
Molecule,% TGI Single Agent BRAFi vs. control ([1]; BRAFi Qdx21 1 mg/kg) [%],% TGI Single Agent BRAFi vs. control ([1]; BRAFi Qdx21 6 mg/kg) [%],% TGI Single Agent BRAFi vs. control ([1]; BRAFi Qdx21 20 mg/kg) [%],number of Hu5E9v1-ADC binding sites ([2]; A2058 cells),number of Hu5E9v1-ADC binding sites ([2]; UACC-257X2.2 cells),cell killing by ADC titration relative to control ADC [3],cell killing by ADC titration relative to control ADC [4],"% TGI Single Agent Anti-ETBR ADC vs. control [1, 7] [%]","% TGI Single Agent Anti-ETBR ADC vs. control [1, 8] [%]","single agent efficacy, tumor volume ([1]; single IV dose 1 mg/kg on day 0)","single agent efficacy, tumor volume ([1]; single IV dose of 3 and 6 mg/kg on day 0)","% TGI Single Agent Anti-ETBR ADC vs. control [5, 8] [%]",% TGI Single Agent Anti-ETBR ADC vs. control ([5]; Anti-ETBR ADC single dose 6 mg/kg) [%],"single agent efficacy, tumor burden ([5]; single IV dose 3 mg/kg)","single agent efficacy, tumor burden ([5]; single IV dose 6 mpk, relative to matching dose of control ADC or vehicle)","% TGI Single Agent Anti-ETBR ADC vs. control [6, 7] [%]","% TGI Single Agent Anti-ETBR ADC vs. control [6, 8] [%]"
"Nc1ncnc2c(C(=O)Nc3c(Cl)ccc(NS(=O)(=O)CCCF)c3F)csc12 [BRAFi-945, 4-amino-N-(6-chloro-2-fluoro-3-(3-fluoropropylsulfonamido)phenyl)thieno[3,2-d]pyrimidine-7-carboxamide]",66,109,136,,,,,,,,,,,,,,
B1,,,,"1,582 sites per cell","33,939 sites per cell",specific cell killing relative to control ADC,specific cell killing relative to control ADC,69,112,efficacy was not apparent,sustained tumor regression,39,85,Efficacy was not apparent,partial reduction in tumor burden,31,33
